Assay in all cases: cell-based or functional assay
Experiment [1] concerns the target MCP-1RB (monocyte chemoattractant protein-1 receptor B) (human) (UniProt P41597).
Experiment [2] deals with MIP-1α/RANTES receptor (Homo sapiens (Human)) (UniProt P32246).
The target of a further experiment is T1, MIP-1α/RANTES receptor (Homo sapiens (Human), UniProt P32246 1-355).
T1 sequence: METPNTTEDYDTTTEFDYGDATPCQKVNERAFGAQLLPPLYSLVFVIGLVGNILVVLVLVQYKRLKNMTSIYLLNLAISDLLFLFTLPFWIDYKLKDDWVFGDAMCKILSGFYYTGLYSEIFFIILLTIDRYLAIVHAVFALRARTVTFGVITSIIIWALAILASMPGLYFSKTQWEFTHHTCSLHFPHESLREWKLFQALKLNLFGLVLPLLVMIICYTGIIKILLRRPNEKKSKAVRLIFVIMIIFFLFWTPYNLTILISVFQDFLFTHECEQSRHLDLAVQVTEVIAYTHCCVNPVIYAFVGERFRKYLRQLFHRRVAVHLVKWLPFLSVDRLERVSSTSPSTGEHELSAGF

MCP-1RB (monocyte chemoattractant protein-1 receptor B) (human), sequence (P41597 other isoform, or with tags, fused parts or gaps): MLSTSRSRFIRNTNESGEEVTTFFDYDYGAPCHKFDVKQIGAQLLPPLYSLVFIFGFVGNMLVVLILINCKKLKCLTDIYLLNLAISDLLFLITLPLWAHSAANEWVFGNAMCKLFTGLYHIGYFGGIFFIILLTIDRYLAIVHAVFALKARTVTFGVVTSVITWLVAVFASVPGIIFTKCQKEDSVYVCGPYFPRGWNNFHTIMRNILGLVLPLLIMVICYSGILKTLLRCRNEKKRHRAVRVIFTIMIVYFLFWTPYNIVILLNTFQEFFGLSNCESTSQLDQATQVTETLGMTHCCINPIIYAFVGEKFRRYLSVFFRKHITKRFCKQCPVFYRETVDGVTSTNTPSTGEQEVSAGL

Turning to “IL-8 (interleukin-8) (from UniProt P10145 28-99) (ligand)”, the IC50, Inhibition of Adenylyl Cyclase in experiment [1] is over 1000 nM.

For “Gro-α (from UniProt P09341 35-107) (ligand)”, the IC50, Inhibition of Adenylyl Cyclase in experiment [2] and in experiment [1] was over 1000 nM each time.

B1: MIP-1α (ligand, UniProt P10147 27-92, looked up)
chain: ADTPTACCFSYTSRQIPQNFIADYFETSSQCSKPGVIFLTKRSRQVCADPSEEWVQKYVSDLELSA
In the case of B1, the IC50, Inhibition of Adenylyl Cyclase in experiment [1] is over 1000 nM. For the same molecule, in the experiment with MIP-1α/RANTES receptor, the “IC50, Inhibition of Adenylyl Cyclase” value stood at 0.11 nM and the “Selectivity (against MCP-1RB), inhibition of adenylyl cyclase” value was over 9000 fold.

B2: MIP-1β (ligand, UniProt P13236 24-92, looked up)
chain: APMGSDPPTACCFSYTARKLPRNFVVDYYETSSLCSQPAVVFQTKRSKQVCADPSESWVQEYVYDLELN
In turn, B2 registered an IC50, Inhibition of Adenylyl Cyclase in experiment [1] of over 1000 nM. In the experiment with MIP-1α/RANTES receptor, the “IC50, Inhibition of Adenylyl Cyclase” value was found to be 10 nM and the “Selectivity (against MCP-1RB), inhibition of adenylyl cyclase” value is over 100 fold.

B3: RANTES (ligand, UniProt P13501 24-91, looked up)
chain: SPYSSDTTPCCFAYIARPLPRAHIKEYFYTSGKCSNPAVVFVTRKNRQVCANPEKKWVREYINSLEMS
Turning to B3, the IC50, Inhibition of Adenylyl Cyclase in experiment [1] was over 1000 nM. Further, in the experiment with MIP-1α/RANTES receptor, the “IC50, Inhibition of Adenylyl Cyclase” value worked out at 0.14 nM and the “Selectivity (against MCP-1RB), inhibition of adenylyl cyclase” value was over 7000 fold.

The record behind these values is patent US6730301.
